In the assay the target is RBD domain derived from the Omicron strain (B.1.1.529 strain) (SARS-CoV-2 Omicron strain (B.1.1.529)) (UniProt P0DTC2). The assay can be described thus: SPR (Biacore T200), as in Example 4: antibody on the chip, RBD as analyte.

S309 (antibody): the Kd (in general, the concentration at which binding is half-saturated) stood at 2.1 nM.

For the origin of these results see patent WO2023002944A1.
